Data reported in US6645504B1, “Bystander suppression of type I diabetes by oral administration of glucagon” (AutoImmune Inc., priority 1987, dated 2003).

What was measured:
DTH responses = DTH responses in animals fed MBP or MBP peptides; assay type: in vivo, Lewis rats; conditions: FIG. 15
Excerpt: Guinea pig MBP peptide 131-150 was ineffective in this case. Peptides were also fed with STI which prevents their breakdown by gastric juices and enhances their biological effect. DTH responses to whole MBP were suppressed by feeding MBP or any one of the MBP-peptides 21-40, or 71-90.

TGF-β = assay: Measurement of TGF-β activity in serum-free culture supernatants of spleen cells; assay type: cell-based, Lewis rats
Experimental: Measurement Of TGF-β Activity In Serum-Free Culture Supernatants. Serum free culture supernatants were collected as previously described (Kehri, et al. J. Exp. Med. 163: 1037-1050, 1986; Wahl, et al. J. […] Thereafter cells were washed three times and resuspended in serum-free medium for the remainder of the 72 hour culture, collected, then frozen until assayed. Determination of TGF-β content and isoform type in supernatants was performed using a mink lung epithelial cell line (American Type Culture Collection, Bethesda, Md. #CCL-64) according to Danielpour et al. (supra), and confirmed by a Sandwich Enzyme Linked Immunosorbent Assay (SELISA) assay as previously described (Danielpour et al. Growth Factors 2: 61-71,1989). The percent active TGF-β was determined by assay without prior acid activation of the samples.

MBP line = assay: Transwell culture suppression of MBP T cell line; assay type: cell-based, Lewis rats
Excerpt: Transwell Cultures. A dual chamber transwell culture system (Costar, Cambridge, Mass.), which is 24.5 mm in diameter and consists of two compartments separated by a semi-permeable polycarbonate membrane, with a pore size of 0.4 μm, was used. The two chambers are 1 mm apart, allowing cells to be coin-cubated in close proximity without direct cell-to-cell contact. To measure in vitro suppression of proliferative responses in transwell cultures, 5×10^4 MBP- or OVA-specific line cells, raised and maintained as previously described (Ben-Nun, A. et al., Eur. J. Immunol. 11:195, 1981), were cultured with 10^6 irradiated (2,500 rad) thymocytes, in 600 μl of proliferation media in the lower well. Spleen cells from orally tolerized rats or controls (fed BSA) were added to the upper well (5×10^5 cells in 200 μl). Spleen cells were removed 7-14 days after the last feeding, and a single cell suspension was prepared by pressing the spleens through a stainless steel mesh. MBP and OVA (50 μg/ml) were added in a volume of 20 μl. […] In some experiments, modulator cells were added in the lower well together with responder cells, and in these instances modulator cells were irradiated (1,250 rad) immediately before being placed in culture. Proliferation media consisted of RPMI 1640 (Gibco Laboratories, Grand Island, N.Y.) supplemented with […] 2-mercaptoethanol, 1% sodium pyruvate, 1% penicillin and streptomycin, 1% glutamine, 1% HEPES buffer, 1% nonessential amino acids, and 1% autologous serum. Each transwell was performed in quadruplicate. The transwells were incubated at 37° C. in a humidified 6% CO2 and 94% air atmosphere for 72 hours. After 54 hours of culture, each lower well was pulsed with 4 μCi of [^3H]thymidine and at 72 hours split and reseeded to three wells in a round-bottomed 96-well plate (Costar) for harvesting onto fiberglass filters and counting using standard liquid scintillation techniques. Percent suppression =100×(1−Δ A cpm responders cultured with modulators/Δ cpm of responders).

MBP specific T-cells = assay: In vitro suppression of proliferative responses by supernatants; assay type: cell-based, Lewis rats; conditions: supernatants of splenocytes from fed animals stimulated in vitro with MBP; FIG. 1
Experimental: Induction Of Oral Tolerance. Rats were fed 1 mg of MBP dissolved in 1 ml PBS, or PBS alone, by gastric intubation using a 18-gauge stainless steel animal feeding needle (Thomas Scientific, Swedesboro, N.J.). Animals were fed five times at intervals of 2-3 days with the last feeding two days before immunization. The purpose of this was to induce tolerance.
In Vitro Suppression Of Proliferative Responses By Supernatants. Spleen cells were removed 7-14 days after the last feeding and a single cell suspension prepared by pressing the spleens through a stainless steel mesh. For preparation of supernatants, spleen cells at a concentration of 5×10^6 cells/ml were stimulated in vitro with MBP (50 μg/ml) in 10 ml of proliferation medium. Proliferation medium consisted of RPMI 1640 (GIBCO, Grand Island, N.Y.) supplemented with 2×10^−5 M 2-mercaptoethanol, 1% sodium pyruvate, 1% penicillin and streptomycin, 1% glutamine, 1% HEPES buffer, 1% nonessential amino acids and 1% autologous serum. […] Cultures were harvested onto fiberglass filters using a multiharvester and counted using standard liquid scintillation techniques.
Purification Of T-Cell Subsets. […] The quantity of magnetic beads used was calculated as being 10 times the estimated target cell population. […]

[1] = spleen cells of MBP-fed animals stimulated with concanavalin-A
[2] = irradiated modulators in lower well with MBP line + MBP 50 μg/ml
[3] = modulators in upper well, MBP line + MBP in lower well

B1: MBP: Guinea pig myelin basic protein purified from brain tissue (protein, UniProt P25188 1-167, looked up)
Myelin basic protein: ASQKRPSQRHGSKYLATASTMDHARHGFLPRHRDTGILDSIGRFFGSDRAAPKRGSGKDSHHAARTTHYGSLPQKSQRSQDENPVVHFFKNIVTPRTPPPSQGKGRGLSLSRFSWGAEGQKPGFGYGGRADYKSKGFKGAHDAQGTLSKIFKLGGRDSRSGSPMARR
In the case of B1, the “DTH responses to guinea pig MBP peptide 71-90” value (DTH responses) is reported as “suppressed”, the “DTH responses to whole MBP” value (DTH responses) is reported as “suppressed” and the “active TGF-β” value (TGF-β; [1]) is reported as “No active TGF-β was observed”. For the same molecule, the “latent TGF-β” value (TGF-β; [1]) was 2.1 ± 0.45 ng/mL, the “TGF-β in the active form” value (TGF-β; spleen cells of fed animals stimulated in vitro with the fed antigen) was 68±9% and the “amount of TGF-β” value (TGF-β; spleen cells of fed animals stimulated in vitro with the fed antigen, serum-free) was 6.8 ± 1.7 ng/mL. The “Percent Suppression” value (MBP line; [2]) was 51%, the Δ cpm (MBP line; [2]) was 18,412 ± 1,867 cpm and the “Percent Suppression” value (MBP line; [3]) was 59%. The Δ cpm (MBP line; [3]) was 15,620 ± 2,294 cpm and the “proliferation of the MBP line after addition of supernatants” value (MBP specific T-cells) was “reduction in the proliferation of the MBP line”.
